Measurements from paper PMC5501728.

Experiments:
[1] = molecular target: PGAM5 residues 81–289 (human) (UniProt Q96HS1); test: AUC; sedimentation velocity, 4°C, 45,000 rpm, protein 50-60 μM in 50 mM Tris pH 7.5, 300 mM NaCl, 0.5 mM TCEP
[2] = molecular target: ΔN54-PGAM5, His6 tag cleaved (human) (UniProt Q96HS1); test: crystal structure; ΔN54-PGAM5-phosphate complex; sitting drop, 20°C, 18% PEG 3350, 0.1 M MES pH 5.7
[3] = molecular target: ΔN90-PGAM5, His6 tag not cleaved (for analytical SEC) (human) (UniProt Q96HS1); test: SEC; Superdex Increase s200 10/300 GL, 50 mM Tris pH 7.5, 200 mM NaCl; His-tagged proteins at several concentrations
[4] = molecular target: ΔN90-PGAM5 (residues 90–289), His6 tag cleaved (human) (UniProt Q96HS1); test: AUC; sedimentation velocity, 4°C, 45,000 rpm, protein 50-60 μM in 50 mM Tris pH 7.5, 300 mM NaCl, 0.5 mM TCEP
[5] = molecular target: ΔN90-PGAM5 (residues 90–289), His6 tag cleaved (human) (UniProt Q96HS1); test: AUC; sedimentation equilibrium, dimer to monomers (self-association model, global fit); 0.7, 0.46 and 0.35 mg/ml in 50 mM HEPES pH 7.5, 300 mM NaCl, 0.5 mM TCEP; 12,000 and 18,000 rpm
[6] = molecular target: ΔN90-PGAM5 (residues 90–289), His6 tag cleaved (human) (UniProt Q96HS1); test: crystal structure; ΔN90-PGAM5 apo and phosphate complex; sitting drop, 20°C, PEG 3350 and 5000 MME 12-20%, 0.1 M HEPES pH 7.5

For “PGAM5 residues 81–289 (from UniProt Q96HS1 81-289) (domain or fragment)”, the stoichiometry N [1] was 2.
Substance “ΔN54-PGAM5, His6 tag cleaved (from UniProt Q96HS1 54-289) (domain or fragment)” has a stoichiometry N [2] of 12.
“ΔN90-PGAM5, His6 tag not cleaved (for analytical SEC) (from UniProt Q96HS1 90-289) (domain or fragment)” was tested, and the stoichiometry N [3] was 2.
“ΔN90-PGAM5 (residues 90–289), His6 tag cleaved (from UniProt Q96HS1 90-289) (domain or fragment)” gave a stoichiometry N [4] of 2, a Kd [5] of 0.48 µM and a stoichiometry N [6] of 2.
